This note sets out measurements from article doi:10.1101/2024.10.12.618001.

This data set is described as follows: SEC.

With “CD95L-IZ-His (His8-TEV-Cys-IZ-CD95L (137-281), secreted form)”, the “percent trimers in solution (Gaussian fit of the SEC curve)” value is listed as “occurs in a trimeric state (i.e. 62%)”.
